The test concerns the target HRgpA-6H (Porphyromonas gingivalis) (UniProt P28784). In words: ELISA, coated HRgpA-6H. For orientation: ELISA stands for enzyme-linked immunosorbent assay.

Positions count from the first letter of the chain named. In names and notes the source's numbering stands. Several values for one entry are separate records, joined by “and”; a condition that tells them apart may be missing. Equal entries are not always repeated.

Sequence of UniProt P28784 (P28784 228-860 limits assumed): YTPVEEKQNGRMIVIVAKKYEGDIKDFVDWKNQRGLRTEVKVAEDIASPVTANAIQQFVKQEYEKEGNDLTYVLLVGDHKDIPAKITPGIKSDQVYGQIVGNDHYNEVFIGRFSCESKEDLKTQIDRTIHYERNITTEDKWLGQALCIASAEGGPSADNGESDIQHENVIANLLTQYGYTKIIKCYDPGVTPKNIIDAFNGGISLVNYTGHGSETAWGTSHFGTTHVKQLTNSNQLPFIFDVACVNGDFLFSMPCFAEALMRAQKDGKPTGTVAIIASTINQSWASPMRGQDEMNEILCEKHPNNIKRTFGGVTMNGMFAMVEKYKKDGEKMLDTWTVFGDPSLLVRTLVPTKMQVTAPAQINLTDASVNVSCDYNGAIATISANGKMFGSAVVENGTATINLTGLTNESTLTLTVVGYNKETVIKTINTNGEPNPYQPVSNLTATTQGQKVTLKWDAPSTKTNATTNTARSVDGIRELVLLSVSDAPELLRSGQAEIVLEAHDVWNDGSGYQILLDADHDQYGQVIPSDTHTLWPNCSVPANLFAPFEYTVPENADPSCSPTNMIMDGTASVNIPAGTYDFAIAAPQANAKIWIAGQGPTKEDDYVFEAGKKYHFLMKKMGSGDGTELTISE

B1: KB001 mouse Fab VH S57A (Fab, V domains shown)
VH: EVQLKQSGPGLVAPSQSLSITCTVSGFSLSIYSVHWVRQPPGKGLEWLGMIWGGGSADYNSALKSRLSISKDNSKSQVFLKMNSLQTDDTAMYYCARNGNFYAMDYWGQGTSVTVSS
VL: QIVLTQSPAIMSASLGERVTMTCTASSSVSSSFLHWYQQKPGSSPQLWIYSTSNLASGVPARFSGSGSGTSYSLTISSMEAEDAATYYCHQYHHSPYIYTFGGGTKLEIK
Take B1: the OD450 nm amounted to 0.922 and the Ratio OD(Variant)/OD(WT) came out at 1.05.

B2: KB001 mouse Fab VH S65T (Fab, V domains shown)
VH: B1 VH with A57S, S65T
VL: B1 VL
B2: the OD450 nm is 0.883 and the Ratio OD(Variant)/OD(WT) came out at 1.07.

B3: KB001 mouse Fab VH S61N (Fab, V domains shown)
VH: B1 VH with A57S, S61N
VL: B1 VL
For B3, the OD450 nm amounted to 0.537 and the Ratio OD(Variant)/OD(WT) is 1.09.

B4: KB001 mouse Fab VH Y106K (Fab, V domains shown)
VH: B1 VH with A57S, Y106K
VL: B1 VL
As for B4, the OD450 nm came out at 0.807 and the Ratio OD(Variant)/OD(WT) amounted to 1.05.

B5: KB001 mouse Fab VH S61T (Fab, V domains shown)
VH: B1 VH with A57S, S61T
VL: B1 VL
On to B5, for which the OD450 nm was 0.543 and 0.447; the Ratio OD(Variant)/OD(WT) was 1.1 and 0.906.

B6: KB001 mouse Fab VH G99S (Fab, V domains shown)
VH: B1 VH with A57S, G99S
VL: B1 VL
Consider B6, for which the OD450 nm worked out at 0.809 and the Ratio OD(Variant)/OD(WT) was 1.01.

B7: KB001 mouse Fab VH Y106Q (Fab, V domains shown)
VH: B1 VH with A57S, Y106Q
VL: B1 VL
For B7, the OD450 nm is 0.792 and the Ratio OD(Variant)/OD(WT) is 1.03.

B8: KB001 mouse Fab VH Y106V (Fab, V domains shown)
VH: B1 VH with A57S, Y106V
VL: B1 VL
On to B8, for which the OD450 nm was 0.795 and 0.84 and 0.802; the Ratio OD(Variant)/OD(WT) was 1.03 and 1.09 and 1.04.

B9: KB001 mouse Fab VH S57V (Fab, V domains shown)
VH: B1 VH with A57V
VL: B1 VL
Regarding B9, the OD450 nm is 0.911 and 0.869; the Ratio OD(Variant)/OD(WT) was 1.04 and 0.988.

B10: KB001 mouse Fab VH K64R (Fab, V domains shown)
VH: B1 VH with A57S, K64R
VL: B1 VL
B10: the OD450 nm was found to be 0.87 and the Ratio OD(Variant)/OD(WT) stood at 1.05.

B11: KB001 mouse Fab VH G99Y (Fab, V domains shown)
VH: B1 VH with A57S, G99Y
VL: B1 VL
Regarding B11, the OD450 nm was 0.835 and the Ratio OD(Variant)/OD(WT) is 1.05.

B12: KB001 mouse Fab VH S57Q (Fab, V domains shown)
VH: B1 VH with A57Q
VL: B1 VL
In the case of B12, the OD450 nm was 0.915 and 0.863 and 0.836; the Ratio OD(Variant)/OD(WT) is 1.04 and 0.981 and 0.951.

B13: KB001 mouse Fab VH S65D (Fab, V domains shown)
VH: B1 VH with A57S, S65D
VL: B1 VL
Turning to B13, the OD450 nm was 0.866 and 0.897; the Ratio OD(Variant)/OD(WT) is 1.05 and 1.08.

B14: KB001 mouse Fab VH Y106T (Fab, V domains shown)
VH: B1 VH with A57S, Y106T
VL: B1 VL
In the case of B14, the OD450 nm came out at 0.827 and the Ratio OD(Variant)/OD(WT) came to 1.07.

B15: KB001 mouse Fab VH Y59V (Fab, V domains shown)
VH: B1 VH with A57S, Y59V
VL: B1 VL
As for B15, the OD450 nm is 0.83 and 0.79; the Ratio OD(Variant)/OD(WT) was 1.05 and 0.999.

B16: KB001 mouse Fab VH K64A (Fab, V domains shown)
VH: B1 VH with A57S, K64A
VL: B1 VL
As for B16, the OD450 nm is 0.89 and the Ratio OD(Variant)/OD(WT) was 1.08.

B17: KB001 mouse Fab VH Y106S (Fab, V domains shown)
VH: B1 VH with A57S, Y106S
VL: B1 VL
Regarding B17, the OD450 nm is 0.852 and 0.849; the Ratio OD(Variant)/OD(WT) is 1.11 and 1.1.

B18: KB001 mouse Fab VH Y106R (Fab, V domains shown)
VH: B1 VH with A57S, Y106R
VL: B1 VL
On to B18, for which the OD450 nm turned out to be 0.793 and the Ratio OD(Variant)/OD(WT) was determined as 1.03.

B19: KB001 mouse Fab VH Y106F (Fab, V domains shown)
VH: B1 VH with A57S, Y106F
VL: B1 VL
For the molecule B19, the OD450 nm was 0.815 and 0.856; the Ratio OD(Variant)/OD(WT) was 1.06 and 1.11.

B20: KB001 mouse Fab VH A103S (Fab, V domains shown)
VH: B1 VH with A57S, A103S
VL: B1 VL
B20: the OD450 nm was determined as 0.909 and the Ratio OD(Variant)/OD(WT) amounted to 1.05.

B21: KB001 mouse Fab VH Y106L (Fab, V domains shown)
VH: B1 VH with A57S, Y106L
VL: B1 VL
For the molecule B21, the OD450 nm came out at 0.791 and the Ratio OD(Variant)/OD(WT) was found to be 1.03.

B22: KB001 mouse Fab VH S65V (Fab, V domains shown)
VH: B1 VH with A57S, S65V
VL: B1 VL
With B22, the OD450 nm stood at 0.867 and the Ratio OD(Variant)/OD(WT) was 1.05.

B23: KB001 mouse Fab VH N100E (Fab, V domains shown)
VH: B1 VH with A57S, N100E
VL: B1 VL
As to B23, the OD450 nm was found to be 0.886 and the Ratio OD(Variant)/OD(WT) was determined as 1.05.

B24: KB001 mouse Fab VH Y106I (Fab, V domains shown)
VH: B1 VH with A57S, Y106I
VL: B1 VL
As to B24, the OD450 nm amounted to 0.803 and the Ratio OD(Variant)/OD(WT) came to 1.04.

B25: KB001 mouse Fab VH Y106M (Fab, V domains shown)
VH: B1 VH with A57S, Y106M
VL: B1 VL
On to B25, for which the OD450 nm was 0.794 and 0.84; the Ratio OD(Variant)/OD(WT) was 1.03 and 1.09.

B26: KB001 mouse Fab VH Y106A (Fab, V domains shown)
VH: B1 VH with A57S, Y106A
VL: B1 VL
Turning to B26, the OD450 nm is 0.821 and 0.835; the Ratio OD(Variant)/OD(WT) is 1.07 and 1.09.

Source of the values: patent publication US20240400654A1.
